Among the data in US20140212888A1 are cytotoxic activity (%) values, retold here.

The test has as its target WT1 (mutant) peptide presented by HLA-A*24:02 on HLA-A*24:02 positive LCL (human). In words: cell-based or functional assay.

B1: 37F8-derived TCR, WT1 TCR A12-3/B5-1 (TCR α-chain TRAV12-3/TRAJ52/TRAC, TCR β-chain TRBV5-1/TRBD2/TRBJ2-5/TRBC2) (TCR)
TCR alpha: WVWSQQKEVEQDPGPLSVPEGAIVSLNCTYSNSAFQYFMWYRQYSRKGPELLMYTYSSGNKEDGRFTAQVDKSSKYISLFIRDSQPSDSATYLCATSNAGGTSYGKLTFGQGTILTVHPNIQNPDPAVYQLRDSKSSDKSVCLFTDFDSQTNVSQSKDSDVYITDKTVLDMRSMDFKSNSAVAWSNKSDFACANAFNNSIIPEDTFFPSPESSCDVKLVEKSFETDTNLNFQNLSVIGFR
TCR beta: GPVKAGVTQTPRYLIKTRGQQVTLSCSPISGHRSVSWYQQTPGQGLQFLFEYFSETQRNKGNFPGRFSGRQFSNSRSEMNVSTLELGDSALYLCASSYGERERKGETQYFGPGTRLLVLEDLKNVFPPEVAVFEPSEAEISHTQKATLVCLATGFYPDHVELSWWVNGKEVHSGVSTDPQPLKEQPALNDSRYCLSSRLRVSATFWQNPRNHFRCQVQFYGLSENDEWTQDRAKPVTQIVSAEAWGRADCGFTSESYQQGVLSATILYE
In turn, B1 yielded a cytotoxic activity (%) of 73%.
